T1: human neuropeptide Y2 receptor (human, UniProt P49146 1-381)
T1 construct: whole, on cells; also called hNPY2 receptor; hNPY2-R
T1 sequence (looked up): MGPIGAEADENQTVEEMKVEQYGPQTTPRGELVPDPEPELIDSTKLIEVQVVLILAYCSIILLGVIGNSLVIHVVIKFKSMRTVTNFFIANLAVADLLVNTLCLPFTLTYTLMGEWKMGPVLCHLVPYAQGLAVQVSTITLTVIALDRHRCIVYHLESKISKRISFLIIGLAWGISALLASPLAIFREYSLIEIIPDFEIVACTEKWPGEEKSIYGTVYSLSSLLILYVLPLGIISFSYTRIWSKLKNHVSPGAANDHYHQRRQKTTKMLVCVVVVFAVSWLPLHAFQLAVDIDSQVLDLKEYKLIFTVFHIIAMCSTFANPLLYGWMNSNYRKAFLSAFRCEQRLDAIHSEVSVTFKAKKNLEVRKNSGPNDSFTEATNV

B1: Compound 7 (peptide)
peptide: Isovaleryl-APEK([AEEA-AEEA-γGlu-C18 diacid])PEEDASPEELQAYYVSLRHYYNWLTRQRY-NH2
SMILES: CC(C)CC(=O)N[C@@H](C)C(=O)N1CCC[C@H]1C(=O)N[C@@H](CCC(=O)O)C(=O)N[C@@H](CCCCNC(=O)COCCOCCNC(=O)COCCOCCNC(=O)CC[C@H](NC(=O)CCCCCCCCCCCCCCCCC(=O)O)C(=O)O)C(=O)N1CCC[C@H]1C(=O)N[C@@H](CCC(=O)O)C(=O)N[C@@H](CCC(=O)O)C(=O)N[C@@H](CC(=O)O)C(=O)N[C@@H](C)C(=O)N[C@@H](CO)C(=O)N1CCC[C@H]1C(=O)N[C@@H](CCC(=O)O)C(=O)N[C@@H](CCC(=O)O)C(=O)N[C@@H](CC(C)C)C(=O)N[C@@H](CCC(N)=O)C(=O)N[C@@H](C)C(=O)N[C@@H](Cc1ccc(O)cc1)C(=O)N[C@@H](Cc1ccc(O)cc1)C(=O)N[C@H](C(=O)N[C@@H](CO)C(=O)N[C@@H](CC(C)C)C(=O)N[C@@H](CCCNC(=N)N)C(=O)N[C@@H](Cc1c[nH]cn1)C(=O)N[C@@H](Cc1ccc(O)cc1)C(=O)N[C@@H](Cc1ccc(O)cc1)C(=O)N[C@@H](CC(N)=O)C(=O)N[C@@H](Cc1c[nH]c2ccccc12)C(=O)N[C@@H](CC(C)C)C(=O)N[C@H](C(=O)N[C@@H](CCCNC(=N)N)C(=O)N[C@@H](CCC(N)=O)C(=O)N[C@@H](CCCNC(=N)N)C(=O)N[C@@H](Cc1ccc(O)cc1)C(N)=O)[C@@H](C)O)C(C)C
B2: Compound 13 (peptide)
peptide: Isovaleryl-APEK([AEEA-AEEA-γGlu-C18 diacid])PEEDAAPEELQQYYVSLRHYYNWLTRQRY-NH2
SMILES: CC(C)CC(=O)N[C@@H](C)C(=O)N1CCC[C@H]1C(=O)N[C@@H](CCC(=O)O)C(=O)N[C@@H](CCCCNC(=O)COCCOCCNC(=O)COCCOCCNC(=O)CC[C@H](NC(=O)CCCCCCCCCCCCCCCCC(=O)O)C(=O)O)C(=O)N1CCC[C@H]1C(=O)N[C@@H](CCC(=O)O)C(=O)N[C@@H](CCC(=O)O)C(=O)N[C@@H](CC(=O)O)C(=O)N[C@@H](C)C(=O)N[C@@H](C)C(=O)N1CCC[C@H]1C(=O)N[C@@H](CCC(=O)O)C(=O)N[C@@H](CCC(=O)O)C(=O)N[C@@H](CC(C)C)C(=O)N[C@@H](CCC(N)=O)C(=O)N[C@@H](CCC(N)=O)C(=O)N[C@@H](Cc1ccc(O)cc1)C(=O)N[C@@H](Cc1ccc(O)cc1)C(=O)N[C@H](C(=O)N[C@@H](CO)C(=O)N[C@@H](CC(C)C)C(=O)N[C@@H](CCCNC(=N)N)C(=O)N[C@@H](Cc1c[nH]cn1)C(=O)N[C@@H](Cc1ccc(O)cc1)C(=O)N[C@@H](Cc1ccc(O)cc1)C(=O)N[C@@H](CC(N)=O)C(=O)N[C@@H](Cc1c[nH]c2ccccc12)C(=O)N[C@@H](CC(C)C)C(=O)N[C@H](C(=O)N[C@@H](CCCNC(=N)N)C(=O)N[C@@H](CCC(N)=O)C(=O)N[C@@H](CCCNC(=N)N)C(=O)N[C@@H](Cc1ccc(O)cc1)C(N)=O)[C@@H](C)O)C(C)C
B3: Compound 14 (peptide)
peptide: Isovaleryl-APEK([AEEA-AEEA-γGlu-C18 diacid])PEADATPEELQRYYVSLRHYYNWLTRQRY-NH2
SMILES: CC(C)CC(=O)N[C@@H](C)C(=O)N1CCC[C@H]1C(=O)N[C@@H](CCC(=O)O)C(=O)N[C@@H](CCCCNC(=O)COCCOCCNC(=O)COCCOCCNC(=O)CC[C@H](NC(=O)CCCCCCCCCCCCCCCCC(=O)O)C(=O)O)C(=O)N1CCC[C@H]1C(=O)N[C@@H](CCC(=O)O)C(=O)N[C@@H](C)C(=O)N[C@@H](CC(=O)O)C(=O)N[C@@H](C)C(=O)N[C@H](C(=O)N1CCC[C@H]1C(=O)N[C@@H](CCC(=O)O)C(=O)N[C@@H](CCC(=O)O)C(=O)N[C@@H](CC(C)C)C(=O)N[C@@H](CCC(N)=O)C(=O)N[C@@H](CCCNC(=N)N)C(=O)N[C@@H](Cc1ccc(O)cc1)C(=O)N[C@@H](Cc1ccc(O)cc1)C(=O)N[C@H](C(=O)N[C@@H](CO)C(=O)N[C@@H](CC(C)C)C(=O)N[C@@H](CCCNC(=N)N)C(=O)N[C@@H](Cc1c[nH]cn1)C(=O)N[C@@H](Cc1ccc(O)cc1)C(=O)N[C@@H](Cc1ccc(O)cc1)C(=O)N[C@@H](CC(N)=O)C(=O)N[C@@H](Cc1c[nH]c2ccccc12)C(=O)N[C@@H](CC(C)C)C(=O)N[C@H](C(=O)N[C@@H](CCCNC(=N)N)C(=O)N[C@@H](CCC(N)=O)C(=O)N[C@@H](CCCNC(=N)N)C(=O)N[C@@H](Cc1ccc(O)cc1)C(N)=O)[C@@H](C)O)C(C)C)[C@@H](C)O
B4: Compound 9 (peptide)
peptide: Isovaleryl-APEK([AEEA-AEEA-γGlu-C18 diacid])PEEDASPEEIQRYYVELRHYYNWLTRQRY-NH2
SMILES: CC[C@H](C)[C@H](NC(=O)[C@H](CCC(=O)O)NC(=O)[C@H](CCC(=O)O)NC(=O)[C@@H]1CCCN1C(=O)[C@H](CO)NC(=O)[C@H](C)NC(=O)[C@H](CC(=O)O)NC(=O)[C@H](CCC(=O)O)NC(=O)[C@H](CCC(=O)O)NC(=O)[C@@H]1CCCN1C(=O)[C@H](CCCCNC(=O)COCCOCCNC(=O)COCCOCCNC(=O)CC[C@H](NC(=O)CCCCCCCCCCCCCCCCC(=O)O)C(=O)O)NC(=O)[C@H](CCC(=O)O)NC(=O)[C@@H]1CCCN1C(=O)[C@H](C)NC(=O)CC(C)C)C(=O)N[C@@H](CCC(N)=O)C(=O)N[C@@H](CCCNC(=N)N)C(=O)N[C@@H](Cc1ccc(O)cc1)C(=O)N[C@@H](Cc1ccc(O)cc1)C(=O)N[C@H](C(=O)N[C@@H](CCC(=O)O)C(=O)N[C@@H](CC(C)C)C(=O)N[C@@H](CCCNC(=N)N)C(=O)N[C@@H](Cc1c[nH]cn1)C(=O)N[C@@H](Cc1ccc(O)cc1)C(=O)N[C@@H](Cc1ccc(O)cc1)C(=O)N[C@@H](CC(N)=O)C(=O)N[C@@H](Cc1c[nH]c2ccccc12)C(=O)N[C@@H](CC(C)C)C(=O)N[C@H](C(=O)N[C@@H](CCCNC(=N)N)C(=O)N[C@@H](CCC(N)=O)C(=O)N[C@@H](CCCNC(=N)N)C(=O)N[C@@H](Cc1ccc(O)cc1)C(N)=O)[C@@H](C)O)C(C)C
B5: Compound 10 (peptide)
peptide: Isovaleryl-APEK([AEEA-AEEA-γGlu-C18 diacid])PEADASPEETQRYYVSLRHYYNWLTRQRY-NH2
SMILES: CC(C)CC(=O)N[C@@H](C)C(=O)N1CCC[C@H]1C(=O)N[C@@H](CCC(=O)O)C(=O)N[C@@H](CCCCNC(=O)COCCOCCNC(=O)COCCOCCNC(=O)CC[C@H](NC(=O)CCCCCCCCCCCCCCCCC(=O)O)C(=O)O)C(=O)N1CCC[C@H]1C(=O)N[C@@H](CCC(=O)O)C(=O)N[C@@H](C)C(=O)N[C@@H](CC(=O)O)C(=O)N[C@@H](C)C(=O)N[C@@H](CO)C(=O)N1CCC[C@H]1C(=O)N[C@@H](CCC(=O)O)C(=O)N[C@@H](CCC(=O)O)C(=O)N[C@H](C(=O)N[C@@H](CCC(N)=O)C(=O)N[C@@H](CCCNC(=N)N)C(=O)N[C@@H](Cc1ccc(O)cc1)C(=O)N[C@@H](Cc1ccc(O)cc1)C(=O)N[C@H](C(=O)N[C@@H](CO)C(=O)N[C@@H](CC(C)C)C(=O)N[C@@H](CCCNC(=N)N)C(=O)N[C@@H](Cc1c[nH]cn1)C(=O)N[C@@H](Cc1ccc(O)cc1)C(=O)N[C@@H](Cc1ccc(O)cc1)C(=O)N[C@@H](CC(N)=O)C(=O)N[C@@H](Cc1c[nH]c2ccccc12)C(=O)N[C@@H](CC(C)C)C(=O)N[C@H](C(=O)N[C@@H](CCCNC(=N)N)C(=O)N[C@@H](CCC(N)=O)C(=O)N[C@@H](CCCNC(=N)N)C(=O)N[C@@H](Cc1ccc(O)cc1)C(N)=O)[C@@H](C)O)C(C)C)[C@@H](C)O

Data on five molecules can be found in patent US20210139548A1 (published 2021).

*1 amine or outer side, *2 acyl side, *3 side chain or, on linkers, in order; H or OH if unused. Side-chain parts run from the residue outwards. The star is where a group is joined. C18 diacid = O=C(O)CCCCCCCCCCCCCCCCC(=O)*; γGlu = O=C(O)[C@H](CCC(=O)[*:2])N[*:1]; Isovaleryl = CC(C)CC(=O)*; AEEA = NCCOCCOCC(=O)O

The target in this assay is T1, human neuropeptide Y2 receptor. The assay can be described thus: radioligand competition (125I-PYY(1-36)), hNPY2R membranes. As to the method:
The filtration RLB assay was carried out in 96-well plates in a final volume of 100 μl per well. Freeze-dried test peptides were dissolved in 100% dimethyl sulfoxide (DMSO) to stock solutions of 1 mM and serial dilutions were performed in assay buffer (50 mM HEPES, 5 mM MgCl₂, 1 mM CaCl₂, pH 7.4) containing 0.2% ovalbumin. […] Next, 80 μL membranes (HTS066M, ChemiSCREEN™ Human Neuropeptide Y2 Receptor Membrane Preparation, CHEMICON) were added to each well to give a final protein concentration of 0.5 μg/well. The plates were sealed and incubated at room temperature for 2 hours in a plate shaker set at 400 rpm. The incubation was stopped by vacuum filtration onto 0.5% poly-ethylene amine (PEI) presoaked GF/C filters using a 96-well FilterMate™ harvester (Perkin Elmer) followed by four washes with 300 μl/well ice-cold wash buffer (50 mM HEPES, 500 mM NaCl, pH7.4). Filter plates were then dried for 60 min at room temperature and the bottom of the plates was sealed with backing tape UniFilter-96. Finally, 50 μl/well scintillation counter cocktail (Microscint20, Packard) was added and the radioactivity was counted in the Packard TopCount NXT scintillation counter. IC₅₀ values (the half maximal inhibitory concentration of the agonist) were calculated by nonlinear regression analysis of sigmoidal dose-response curves.
Turning to B1, the Ki came to 1.02 nM. That is a single-digit nanomolar value.

As for B2, the affinity, expressed as Ki, was 1.29 nM.

With B3, the Ki was found to be 0.31 nM.

Molecule B4 came in with an inhibition constant Ki of 1.22 nM.

For B5, the affinity corresponds to a Ki of 1.28 nM.
